The source of these data is paper PMC8328229 (Methods in enzymology, 2021).

Primed or numbered codes have the meaning given here. Where no end group is shown, it is not given here. FITC′ = fluorescein

Experiment [1] concerns the target FITC-labeled M. acetivorans McrA 13-mer peptide (GG-…) (Methanosarcina acetivorans). The experiment can be described thus: fluorescence polarisation.
Another experiment concerns MjYcaO. To be noted: cited from earlier work.
The next experiment has as its system M. acetivorans TfuA. To be noted: FP; 25 °C, 1 h; ref Mahanta et al., 2018; cited from earlier work.
The target in experiment [2] is MBP-tagged Methanosarcina acetivorans YcaO (Methanosarcina acetivorans). The experiment can be described thus: fluorescence polarisation. On the technique in general: Polarisation of emitted light reports the rotation of a fluorescent probe.
The target of experiment [3] is T1, MBP-tagged Methanocaldococcus jannaschii YcaO (Methanocaldococcus jannaschii, UniProt Q58494 1-385).
T1 sequence (looked up): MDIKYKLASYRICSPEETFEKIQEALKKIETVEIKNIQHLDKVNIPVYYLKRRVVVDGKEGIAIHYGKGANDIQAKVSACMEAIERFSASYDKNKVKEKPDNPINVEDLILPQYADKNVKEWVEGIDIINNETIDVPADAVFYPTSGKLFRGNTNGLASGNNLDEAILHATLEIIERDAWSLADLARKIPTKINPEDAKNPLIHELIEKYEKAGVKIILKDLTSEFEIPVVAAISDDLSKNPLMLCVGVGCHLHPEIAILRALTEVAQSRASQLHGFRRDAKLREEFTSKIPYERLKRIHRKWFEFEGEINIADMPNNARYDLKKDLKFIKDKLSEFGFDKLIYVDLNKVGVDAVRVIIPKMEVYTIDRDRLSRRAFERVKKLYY
The experiment can be described thus: fluorescence polarisation.

Broadly, the Kd is the equilibrium constant for the complex coming apart. The low end stands for a tighter complex, the high end for a looser complex. As to “MBP-tagged Methanosarcina acetivorans YcaO (enzyme)”, the Kd in experiment [1] is 700 nM.

Consider `Nc1ncnc2c1ncn2[C@@H]1O[C@H](COP(=O)(O)OP(=O)(O)OP(=O)(O)O)[C@@H](O)[C@H]1O` [ATP], for which the “ATP-derived by-products of thioamidation” value with MjYcaO (31P NMR, YcaO-catalyzed thioamidation, ref Mahanta et al., 2018) is “ADP and phosphate (Pi) were found to be the by-products”. Besides, the “ATP hydrolysis in the absence of the McrA peptide substrate” value with MjYcaO (absence of McrA peptide, ref Dong et al., 2019) is “YcaO can hydrolyze ATP to ADP and Pi unproductively”.

With GG-RLGFFGFDLQD [native McrA peptide], the binding entry in the experiment with M. acetivorans TfuA was “not detected”.

The molecule RLGFFGFDAQD [MBP-tagged McrA peptide, Ala substitution of Leu468] gave a fold reduction of affinity against the wild-type peptide in experiment [2] of 14 fold.

Regarding RLGFFAFDLQD [MBP-tagged McrA peptide, Ala substitution of Gly465], the fold reduction of affinity against the wild-type peptide in experiment [2] stood at 14 fold.

In experiment [2], RLAFFGFDLQD [MBP-tagged McrA peptide, Ala substitution of Gly462] displayed a fold reduction of affinity against the wild-type peptide of 14 fold.

With RLGFFGFALQD [MBP-tagged McrA peptide, Ala substitution of Asp467], the fold reduction of affinity against the wild-type peptide in experiment [2] was found to be 12 fold.

Turning to RLGFFGFDLAD [MBP-tagged McrA peptide, Ala substitution of Gln469], the fold reduction of affinity against the wild-type peptide in experiment [2] was 24 fold.

Molecule RAGFFGFDLQD [MBP-tagged McrA peptide, Ala substitution of Leu461] came in with a fold reduction of affinity against the wild-type peptide in experiment [2] of 28 fold.

For the molecule RLGFAGFDLQD [MBP-tagged McrA peptide, Ala substitution of Phe464], in experiment [2], the fold reduction of affinity against the wild-type peptide amounted to 11 fold.

By Ki is commonly meant the dissociation constant of the complex between target and ligand, obtained from inhibition or displacement. Lower therefore signals a stronger hold on the target. In the case of RLGFFGFDLQD [wild-type MBP-tagged McrA peptide (M. acetivorans McrA 11-mer)], the Ki in experiment [2] worked out at 700 nM.

In turn, {FITC′}-GGRLGFYGYDLQD [FITC-labeled M. jannaschii McrA 13-mer peptide (GG-RLGFYGYDLQD)] registered a Kd in experiment [3] of 1100 nM.
